Experimental data reported in patent US20160152729A1 (Novo Nordisk, published 2016).

Tests used:
[1] = molecular target: T1, human TFPIα (human, UniProt P10646 29-304); assay: SPR Biacore T200; antibody captured on anti-human IgG Fc; TFPI as analyte; 1:1 model
T1 construct: recombinant full-length TFPIα in the assays; also called TFPI alpha; full-length TFPIα
Method: (§1) Binding interaction data were obtained by means of Surface Plasmon Resonance in a Biacore T200 instrument. […] chip (GE Healthcare) in flow-cells 1-4 using the amine coupling protocol available with the Biacore T-200 control software version 2.0 (GE Healthcare) and the reagents provided with the Amine Coupling Kit (GE Healthcare). […] Different concentrations of human TFPIα or TFPI (1-79) were tested by diluting the sample in running buffer (10 mM HEPES, pH 7.4, 300 mM NaCl, 5 mM CaCl₂, 0.05% Surfactant P20, 1 mg/ml BSA). Each sample was assayed using 300 seconds of contact time followed by 420-600 seconds of dissociation time at 30 μl/min flow rate. A buffer blank was also assayed. The sensor surface was regenerated with 10 mM Glycine pH 1.7 either for 180 sec at 30 μl/min flow rate or with two cycles each of 30 seconds at 30 μl/min flow rate.
(§2) The Biacore T200 Evaluation software (version 2.0) was used to analyse the data. Determination of binding constants (kₐ, kd, KD) was obtained assuming a 1:1 interaction of TFPI and the monoclonal antibody of interest.

[2] = molecular target: T2, human TFPI (1-79) (human, UniProt P10646 29-107); assay: as above
T2 construct: Acidic N-terminal region and KPI-1 domain
Method: as §1, §2

B1: mAb 0294 (antibody, human IgG4 S228P, kappa, V domains shown)
VH: QVQLKQSGPGLVQPSQSLSITCTVSGFSLTNYGVHWVRQSPGKGLEWLAVIWRGGSIDYNAAFMSRLSITKDNSKSQVFFKMNSLQADDTAIYYCAKNSHGNYVGYAMDYWGQGTSVTVSS
VL: GIVMTQSQKFMSTTVGDRVSITCKASQSVGPAVAWYQQKPGQSPKLLIYSASNRYTGVPDRFTGSGSGADFTLTISNLHSEDLADYFCQQYTSYPTFGGGTKLEIKR
notes: Murine-human chimera of mAb 2F22, human IgG4 (S241P) constant region, human kappa; also called chimeric mAb 2F22
Question: For B1, which Kd [1] is on record?
Answer: The Kd was 0.46 nM.

Question: And the Kd [2]?
Answer: The Kd was 0.27 nM.
